Laboratory results taken from article PMC6914384 (Nature, 2018).
No end group written: not given here.

T1: p300 BRP module (bromodomain-RING-PHD), residues 1048-1282 (UniProt Q09472 1048-1282)
T1 sequence: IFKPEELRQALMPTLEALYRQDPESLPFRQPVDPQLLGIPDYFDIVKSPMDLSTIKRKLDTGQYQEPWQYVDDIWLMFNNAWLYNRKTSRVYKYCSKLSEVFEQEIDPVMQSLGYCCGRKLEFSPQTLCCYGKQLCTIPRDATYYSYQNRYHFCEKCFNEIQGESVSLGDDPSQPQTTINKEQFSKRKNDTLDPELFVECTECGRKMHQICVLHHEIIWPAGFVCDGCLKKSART

T2: p300 BPΔR module (BRP 1048-1282 with the RING domain 1169-1241 replaced by a single glycine) (UniProt Q09472)
T2 chain: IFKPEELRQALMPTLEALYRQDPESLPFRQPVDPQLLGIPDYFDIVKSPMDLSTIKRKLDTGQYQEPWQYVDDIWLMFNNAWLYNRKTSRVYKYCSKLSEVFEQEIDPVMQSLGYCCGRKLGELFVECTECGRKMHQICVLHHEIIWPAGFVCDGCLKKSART


Columns and labels:
[1] = target: T1, p300 BRP module (bromodomain-RING-PHD), …; test: ITC
[2] = target: T2, p300 BPΔR module (BRP 1048-1282 with …); test: crystal structure

Row | Binder | Kd [1] [mM] | stoichiometry N [1] | binding result [2]
1 | ARTKQTQRKSTGGK(Ac)APRKQL [H3 K14ac (1-20) peptide] | 1.76 | 1.13 | 
2 | ARTKQTQRK(Ac)STGGK(Ac)APRKQL [H3 K9acK14ac (1-20) peptide] | 0.578 | 1.06 | 
3 | GLGK(Ac)GGAK(Ac)RHR [11-mer histone peptide H4 (10-20) with acetylated K12 and K16] |  |  | binds
